Experimental data taken from publication PMC6317994 (Cell reports, 2018).

Target: T1, Flag-tagged N-terminal domain of TET2 (residues 1–1127) (human, UniProt Q6N021 1-1127)
T1 sequence: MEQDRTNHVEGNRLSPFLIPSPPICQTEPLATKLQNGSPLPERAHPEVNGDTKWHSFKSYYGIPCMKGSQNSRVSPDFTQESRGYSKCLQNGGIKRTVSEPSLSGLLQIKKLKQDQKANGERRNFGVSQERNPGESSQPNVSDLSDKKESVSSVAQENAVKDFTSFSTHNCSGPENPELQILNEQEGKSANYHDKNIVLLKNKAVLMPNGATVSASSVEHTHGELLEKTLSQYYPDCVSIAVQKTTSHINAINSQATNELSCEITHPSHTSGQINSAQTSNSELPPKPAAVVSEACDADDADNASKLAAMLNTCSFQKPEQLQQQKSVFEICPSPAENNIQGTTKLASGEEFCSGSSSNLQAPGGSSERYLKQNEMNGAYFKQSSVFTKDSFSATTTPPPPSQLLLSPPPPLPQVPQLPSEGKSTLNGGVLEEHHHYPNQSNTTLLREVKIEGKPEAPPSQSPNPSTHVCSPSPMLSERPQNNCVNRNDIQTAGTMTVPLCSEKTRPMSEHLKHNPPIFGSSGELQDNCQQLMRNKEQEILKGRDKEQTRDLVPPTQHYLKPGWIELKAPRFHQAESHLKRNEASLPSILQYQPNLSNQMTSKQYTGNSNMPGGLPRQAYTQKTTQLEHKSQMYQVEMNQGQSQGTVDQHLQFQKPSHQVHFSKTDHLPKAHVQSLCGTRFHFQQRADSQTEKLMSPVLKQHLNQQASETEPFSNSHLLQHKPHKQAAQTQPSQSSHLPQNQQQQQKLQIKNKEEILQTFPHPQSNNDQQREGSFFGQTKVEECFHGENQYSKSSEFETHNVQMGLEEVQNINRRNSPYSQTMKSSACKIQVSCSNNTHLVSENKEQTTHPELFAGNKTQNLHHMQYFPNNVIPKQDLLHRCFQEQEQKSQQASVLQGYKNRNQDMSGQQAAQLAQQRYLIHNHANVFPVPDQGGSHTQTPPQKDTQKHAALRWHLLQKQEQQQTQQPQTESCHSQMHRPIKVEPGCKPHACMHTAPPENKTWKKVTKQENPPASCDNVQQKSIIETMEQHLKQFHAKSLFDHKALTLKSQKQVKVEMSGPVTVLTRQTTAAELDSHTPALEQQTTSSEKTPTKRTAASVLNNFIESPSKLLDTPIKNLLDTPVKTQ
Assay: pull-down

- binding result: binds
B1: SNIP1 purified from E. coli (GST tag removed) (natural protein)
chain: MKAVKSERERGSRRRHRDGDVVLPAGVVVKQERLSPEVAPPAHRRPDHSGGSPSPPTSEPARSGHRGNRARGVSRSPPKKKNKASGRRSKSPRSKRNRSPHHSTVKVKQEREDHPRRGREDRQHREPSEQEHRRARNSDRDRHRGHSHQRRTSNERPGSGQGQGRDRDTQNLQAQEEEREFYNARRREHRQRNDVGGGGSESQELVPRPGGNNKEKEVPAKEKPSFELSGALLEDTNTFRGVVIKYSEPPEARIPKKRWRLYPFKNDEVLPVMYIHRQSAYLLGRHRRIADIPIDHPSCSKQHAVFQYRLVEYTRADGTVGRRVKPYIIDLGSGNGTFLNNKRIEPQRYYELKEKDVLKFGFSSREYVLLHESSDTSEIDRKDDEDEEEEEEVSDS
